To fix the notation:
B1: X7 (antibody, human IgG4, V domains shown)
VH: QVQLVQSGAEVKKPGSSVKVSCKASGYNFLNYDVNWVRQAPGQGLEWMGGIIPIFGTANYAQKFQGRVTITADESTSTAYMELSSLRSEDTAVYYCATGVGAGWFDPWGQGTLVTVSS
VL: DIVMTQSPDSLAVSLGERATINCKSSQSVFFDENNKNYLAWYQQKPGQPPKLLIYWASTRESGVPDRFSGSGSGTDFTLTISSLQAEDVAVYYCQQYFEEPYTFGQGTRLEIK
notes: conditioned media in the HEK293F assays
B2: X14 (antibody, human IgG4, V domains shown)
VH: B1 VH with N31H, G99A, P107T
VL: B1 VL with F30Y, D32S, E33P
notes: as for B1
B3: X20 (antibody, human IgG4, V domains shown)
VH: B1 VH with N31H, G99A
VL: B1 VL with F30Y, D32S, F98Y
notes: as for B1
B4: X12 (antibody, human IgG4, V domains shown)
VH: B1 VH with N31H, G99A, P107T
VL: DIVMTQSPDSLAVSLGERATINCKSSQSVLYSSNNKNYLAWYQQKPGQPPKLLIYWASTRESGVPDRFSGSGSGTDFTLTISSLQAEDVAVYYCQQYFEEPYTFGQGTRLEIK
notes: as for B1
B5: X16 (antibody, human IgG4, V domains shown)
VH: B1 VH with N31H, G99A, P107T
VL: B1 VL with F30Y, E33V
notes: as for B1
B6: X21 (antibody, human IgG4, V domains shown)
VH: B1 VH with N31H
VL: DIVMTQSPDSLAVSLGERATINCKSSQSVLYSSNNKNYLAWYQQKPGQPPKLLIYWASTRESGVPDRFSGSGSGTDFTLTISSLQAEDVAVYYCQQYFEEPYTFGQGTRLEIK
B7: X22 (antibody, human IgG4, V domains shown)
VH: B1 VH with N31H
VL: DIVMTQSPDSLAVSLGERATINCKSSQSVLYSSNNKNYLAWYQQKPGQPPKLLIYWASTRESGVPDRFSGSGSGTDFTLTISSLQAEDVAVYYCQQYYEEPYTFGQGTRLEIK
B8: X33 (antibody, human IgG4, V domains shown)
VH: B1 VH with N31H, G99A
VL: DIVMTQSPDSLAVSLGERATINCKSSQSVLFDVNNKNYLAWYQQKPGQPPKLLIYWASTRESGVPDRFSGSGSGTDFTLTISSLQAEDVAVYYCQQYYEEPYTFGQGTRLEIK
B9: X32 (antibody, human IgG4, V domains shown)
VH: B1 VH with N31H, G99A
VL: B1 VL with E33V, F98Y
B10: X31 (antibody, human IgG4, V domains shown)
VH: B1 VH
VL: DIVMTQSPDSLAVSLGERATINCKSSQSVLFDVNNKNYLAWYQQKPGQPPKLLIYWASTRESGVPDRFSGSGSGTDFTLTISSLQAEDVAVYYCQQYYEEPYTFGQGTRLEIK

Data on ten molecules can be found in patent US20260070976A1 (Alector, published 2026).

Numbering of substitutions follows the chain as printed.

T3 sequence (Q9UKJ1 20-197 limits assumed): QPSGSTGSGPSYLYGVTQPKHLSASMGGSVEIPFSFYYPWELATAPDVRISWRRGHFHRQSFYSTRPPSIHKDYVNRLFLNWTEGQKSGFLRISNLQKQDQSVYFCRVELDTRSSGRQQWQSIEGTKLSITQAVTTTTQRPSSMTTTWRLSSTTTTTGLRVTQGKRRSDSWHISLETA
T2 sequence (Q9UKJ0 20-191 limits assumed): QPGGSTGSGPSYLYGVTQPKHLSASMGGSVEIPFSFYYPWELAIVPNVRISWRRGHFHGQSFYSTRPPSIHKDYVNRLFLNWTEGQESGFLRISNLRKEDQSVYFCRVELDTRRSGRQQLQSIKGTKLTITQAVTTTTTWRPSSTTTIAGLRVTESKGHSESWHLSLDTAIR
T5 sequence (Q9UKJ1 20-303 R78G): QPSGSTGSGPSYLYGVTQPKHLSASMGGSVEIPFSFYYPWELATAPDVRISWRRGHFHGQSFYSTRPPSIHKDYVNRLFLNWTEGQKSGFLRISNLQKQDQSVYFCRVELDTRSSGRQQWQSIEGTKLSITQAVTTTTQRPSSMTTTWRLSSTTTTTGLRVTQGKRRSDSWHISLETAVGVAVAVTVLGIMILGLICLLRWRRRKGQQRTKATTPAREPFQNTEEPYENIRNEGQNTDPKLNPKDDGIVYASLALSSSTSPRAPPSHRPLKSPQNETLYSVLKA
T1 sequence (Q9UKJ1 20-303): as the sequence (Q9UKJ1 20-303 R78G) above, with G59R counted along it

One experiment has as its target T1, cell surface PILRA on human monocytes (human, UniProt Q9UKJ1 20-303). Description: cell-based or functional assay.
Take B1: the “Hu Mono DR EC50” value came to 0.9 µg/mL.
Same read-out and setting: the result for B2 reads approximately 0.02 µg/mL.
B3: the “Hu Mono DR EC50” value was approximately 0.02 µg/mL.
Regarding B4, the “Hu Mono DR EC50” value was approximately 0.02 µg/mL.
B5: the “Hu Mono DR EC50” value was 0.005 µg/mL.

The next experiment addresses T2, recombinant human PILRB (human, UniProt Q9UKJ0 20-191). Description: SPR, Carterra LSA, steady-state fit. Here is the method: (§1) Binding kinetics of human anti-PILRA-IgG4 antibodies were evaluated by surface plasmon resonance (SPR) using a Carterra LSA instrument (Carterra, Salt Lake City, UT). Antibodies were immobilized in duplicate arrays onto an HC30M sensor chip (Carterra) by amine coupling according to the manufacturer's protocol. After priming the immobilized antibodies with HBS-EP+ (Teknova, Hollister, CA, #8022) running buffer with 0.5 mg/mL BSA (MP Biomedicals LLC, #820451), the immobilized antibodies were tested for their ability to bind to recombinant human PILRA (SEQ ID NO:1) and cynomolgus PILRA (SEQ ID NO:120) and to human PILRB (SEQ ID NO:105) and cynomolgus PILRB (SEQ ID NO:121).
(§2) For binding kinetics analysis, human and cynomolgus PILRA and PILRB analytes were diluted in running buffer to 440 to 470 nM, and diluted 3-fold serially five times, to 1.8 to 1.9 nM, and injected for five minutes over the entire chip using the single channel flow cell to measure association of binding to the immobilized antibodies. Dissociation of the analytes was measured for five minutes, followed by regeneration of the chip with two 30-second injections of 10 mM glycine pH 2.0.
For the human PILRB interactions, the binding was too weak and heterogenous for kinetic constants to be calculated in this assay. Therefore, steady-state affinities were estimated based on the binding level of each analyte concentration at the end of the injections.
For orientation: Surface plasmon resonance follows binding to a sensor surface in real time, without labels.
As for B1, the dissociation constant (Kd) stood at 77 nM.
Same read-out and setting: the result for B6 reads 43 nM; that for B7, 54 nM.
For B2, the dissociation constant Kd is 4 nM.
The same measure, in the same setting: the result for B8 reads 2 nM; that for B3, 2 nM.
As to B4, the Kd was 12 nM.
Same read-out and setting: the result for B5 reads 2 nM; that for B9, 2 nM.
Still for that read-out and setting: the value for B10 was 38 nM.

The next experiment addresses T3, recombinant human PILRA (human, UniProt Q9UKJ1 20-197). As to the kind of experiment: SPR, Biacore T200, antibody captured by anti-Fab. On the procedure: (§3) A subset of these antibodies was further evaluated using the Biacore T200 (Cytiva). Anti-PILRA antibodies were diluted to 10 μg/mL and captured using an anti-Fab (Cytiva, #28958325) surface on a CM4 chip, that was prepared by amine coupling according to the manufacturer's protocol. Human PILRA and cynomolgus PILRB were diluted in running buffer to 130 nM, and diluted 4-fold serially, twice, to 8 nM. Human PILRB was similarly diluted from 260 nM to 16 nM. These analytes were injected and allowed 2 minutes of association, followed by dissociation for 5 minutes.
(§4) Data were analyzed using Biacore evaluation software to generate kinetic constants. The equilibrium dissociation constants (KD) were calculated from the fitted association and dissociation rate constants (k-on and k-off) for each of the anti-PILRA antibodies. These Kn values are indicated with asterisks in Table 8 below.
Take B6: the Kd was 1.9 nM.
With B7, the equilibrium dissociation constant (Kd) was found to be 6.2 nM.
The same measure, in the same setting: the result for B4 reads 0.3 nM.

The next experiment has as its target T2, recombinant human PILRB. As to the kind of experiment: SPR, Biacore T200, antibody captured by anti-Fab. Here is the method:
as §3, §4
For B7, the Kd is 14 nM.
Still for that read-out and setting: the value for B4 was 28 nM.

In a further experiment the target is T3, recombinant human PILRA. As to the kind of experiment: SPR, Carterra LSA, antibody amine-coupled, kinetic fit. Here is the method:
as §1, §2
On to B1, for which the Kd amounted to 3.8 nM.
Turning to B6, the Kd came out at 1.8 nM.
Still for that read-out and setting: the value for B7 was 2.2 nM; that for B2 was 1.1 nM; that for B8 was 0.6 nM.
As to B3, the equilibrium dissociation constant (Kd) turned out to be 0.5 nM.
For B4, the Kd came out at 1 nM.
On the same count and under the same terms, the value for B5 was 0.5 nM; that for B9 was 0.1 nM.
Regarding B10, the Kd worked out at 2.2 nM.

The target in another experiment is T4, recombinant cynomolgus PILRA (SEQ ID NO:120) (cynomolgus monkey).
T4 construct: also called cyno PILRA
T4 sequence (chain, as listed by the source limits assumed): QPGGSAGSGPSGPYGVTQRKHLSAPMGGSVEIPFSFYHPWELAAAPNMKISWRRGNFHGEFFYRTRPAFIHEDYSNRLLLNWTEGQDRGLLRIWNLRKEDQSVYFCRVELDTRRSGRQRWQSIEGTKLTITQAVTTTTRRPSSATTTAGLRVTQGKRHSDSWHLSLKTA
The experiment is described as above. Here is the method: as §1, §2
Consider B1, for which the Kd worked out at 0.4 nM.
Same read-out and setting: the value for B6 was 0.1 nM.
Same read-out and setting: the value for B7 was 0.2 nM; that for B2 was 0.1 nM.
The same measure, in the same setting: the value for B8 was 0.1 nM; that for B3 was 0.1 nM.
Consider B4, for which the Kd is 0.2 nM.
On the same count and under the same terms, the value for B5 was 0.1 nM; that for B9 was 0.1 nM; that for B10 was 0.1 nM.

Another experiment addresses T5, human PILRA G78 on HEK293F cells (human, UniProt Q9UKJ1 20-303).
T5 construct: also called hA; G78 OE
Description: FACS on HEK293F cells, binding on human PILRA (hA) over human PILRB (hB). On the procedure:
Conditioned media samples containing the tested anti-PILRA antibodies were assessed for binding to HEK293F cells overexpressing human PILRA (hA), human PILRB (hB), and cynomolgus PILRA (cA) by FACS. The conditioned media containing the tested antibodies were incubated with the cells for 30 min at 4° C., washed twice, and then detected with goat anti-human IgG secondary antibody (Alexa Fluor 647) at 1:1000 dilution. The cells were analyzed by flow cytometry on FACS Canto II, and for all cell lines, the reported MFI values were calculated for each conditioned media. These antibodies were evaluated for nonspecific binding using a baculovirus particle (BVP) assay (Jain T., Sun T., Durand S., Hall A., Houston N. R., Nett J. H., Sharkey B., Bobrowicz B., Caffry L, Yu Y., et al. Biophysical properties of the clinical-stage antibody landscape. Proc. Natl. Acad. Sci. USA. 2017; 114:944-949. Doi: 10.1073/pnas.1616408114.). The BVP scores are listed in Table 9, and the higher the score the more nonspecific binding that occurred.
Consider B1, for which the “hA/hB binding ratio on HEK293F” value was 63.
Still for that read-out and setting: the value for B2 was 7.9; that for B3 was 6.7.
Same read-out and setting: the value for B4 was 14.4; that for B5 was 6.1.

In a further experiment the target is cynomolgus PILRA on HEK293F cells (cynomolgus monkey, UniProt A0A7N9CRU1 20-292). As to the kind of experiment: cA Kd of Table 9; method not stated (Example 8: HEK293F overexpressing cells, FACS).
cynomolgus PILRA on HEK293F cells, sequence (A0A7N9CRU1 entry or part of it): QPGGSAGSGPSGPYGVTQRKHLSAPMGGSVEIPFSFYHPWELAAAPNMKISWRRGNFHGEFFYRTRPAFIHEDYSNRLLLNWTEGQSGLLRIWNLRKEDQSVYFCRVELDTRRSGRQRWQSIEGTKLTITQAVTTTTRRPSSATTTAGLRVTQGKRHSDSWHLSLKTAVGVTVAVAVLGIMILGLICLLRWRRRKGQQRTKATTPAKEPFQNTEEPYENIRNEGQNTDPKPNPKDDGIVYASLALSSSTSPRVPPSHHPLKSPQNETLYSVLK
Regarding B1, the Kd was found to be 2 nM.
The same measure, in the same setting: the result for B2 reads 0.3 nM; that for B4, 0.3 nM.

Another experiment has as its target T5, human PILRA G78 on HEK293F cells. As to the kind of experiment: hA Kd of Table 9; method not stated (Example 8: HEK293F overexpressing cells, FACS).
In the case of B1, the dissociation constant (Kd) was found to be 1.2 nM.
Consider B2, for which the affinity, expressed as Kd, was 0.1 nM.
Take B4: the dissociation constant Kd came to 0.1 nM.

For a further experiment, the target named is T6, human PILRB on HEK293F cells (human, UniProt Q9UKJ0 20-227).
T6 construct: also called hB
T6 sequence (Q9UKJ0 20-227): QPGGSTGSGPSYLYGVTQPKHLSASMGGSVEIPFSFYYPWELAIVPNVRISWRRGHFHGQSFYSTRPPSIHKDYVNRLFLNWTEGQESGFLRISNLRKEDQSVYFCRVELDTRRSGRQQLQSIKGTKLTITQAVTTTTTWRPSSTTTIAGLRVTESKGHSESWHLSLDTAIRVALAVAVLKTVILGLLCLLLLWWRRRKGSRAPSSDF
As to the kind of experiment: hB Kd of Table 9; method not stated (Example 8: HEK293F overexpressing cells, FACS).
In turn, B2 displayed a dissociation constant Kd of 6.6 nM.
The same measure, in the same setting: the value for B4 was 36.7 nM.

Another experiment addresses T1, cell surface PILRA on human monocytes. Description: flow cytometry; Alexa Fluor 647-conjugated antibody on human CD14+ monocytes, Fc receptors blocked, 30 min on ice. On the procedure: Anti-human PILRA antibodies X0 (PA-29) and its affinity matured variants were tested for their abilities to bind cell surface PILRA on human and cynomolgus monocytes. CD14+ monocytes were isolated from healthy human donors using a RosetteSep Human Monocyte Enrichment Cocktail kit (StemCell). Cynomolgus white blood cells were collected from cynomolgus whole blood. In both human and cynomolgus samples, the Fc receptor on the tested monocytes was blocked and the monocytes were treated with Alexa Fluor 647-conjugated PILRA antibodies for 30 minutes on ice. A dose response curve of antibodies X0 (PA-29), X1, X2, X7, X11, X12, X13, X14, X16, X18, and X20 was tested for binding to cell surface PILRA in human and cynomolgus monocytes, and antibodies bound to PILRA in a dose response manner. In another sample of human donor monocytes, a dose response curve of antibodies X0 (PA-29), X1, X2, X11, X13, X18, X29 (PA-43), and X34 (A6) was tested for binding to cell surface PILRA in human and cynomolgus monocytes, and antibodies bound to PILRA in a dose response manner.
Regarding B1, the “EC50 (read off the curve)” value is approximately 0.2 µg/mL.
The same measure, in the same setting: the value for B2 was approximately 0.1 µg/mL; that for B4 was approximately 0.1 µg/mL.

A further experiment has as its target T5, human PILRA G78 on HEK293F cells. Description: flow cytometry blocking assay; antibody on HEK293F cells overexpressing human PILRA G78, then 5 ug/mL NPDC1 Fc as the blocked ligand; cell-bound NPDC1 Fc read as MFI. On the procedure:
A dose response curve of antibodies X0 (PA-29), X1, X2, X7, X11, X12, X13, X14, X16, X18, and X20 was assessed for modulating the binding of Neural Proliferation Differentiation and Control Protein 1 (NPDC1) Fc to 293 cells ectopically expressing human PILRA (HEK293F human PILRA G78 overexpressing cells). Conditioned media samples containing antibodies were incubated with human PILRA overexpressing cells for 30 minutes at 4° C., and then 5 μg/mL NPDC1 Fc was added to this mixture. After 30 minutes of incubation at 4° C., the cells were washed and cell-bound NPDC1 Fc was detected with anti-human IgG Alexa Fluor 647. The cells were analyzed by flow cytometry on FACS Canto II with the percentage of NPDC1 Fc binding in the presence of conditioned media relative to NPDC1 Fc binding alone was calculated. […] All tested antibodies decreased binding of NPDC1 to human PILRA.
Take B1: the “IC50 (read off the curve)” value was approximately 0.08 µg/mL.
For the molecule B2, the “IC50 (read off the curve)” value is approximately 0.02 µg/mL.
For the molecule B4, the “IC50 (read off the curve)” value is approximately 0.08 µg/mL.

As usually defined, the Kd is the free concentration of one partner at which half of the binding sites on the other are occupied at equilibrium, for simple one-to-one binding. One may read the EC50 (read off the curve) as the concentration at which the effect is half-maximal.
